In PMC7079100:

Experiments:
MSI2-RRM1 [1] = molecular target: T1, MSI2-RRM1 (Homo sapiens, UniProt Q96DH6 21-111); experiment: fluorescence polarization; 2 nM RNA; lower affinity than Numb15; Kd only in figure; FP at room temperature, 2 nM 3' FAM RNA; buffer, salt and pH not given (previously described methods)
MSI2-RRM1 [2] = molecular target: T1, MSI2-RRM1; experiment: fluorescence polarization; 2 nM RNA; highest affinity of the three; Kd only in figure; FP at room temperature, 2 nM 3' FAM RNA; buffer, salt and pH not given (previously described methods)

T1 sequence (Q96DH6 21-111): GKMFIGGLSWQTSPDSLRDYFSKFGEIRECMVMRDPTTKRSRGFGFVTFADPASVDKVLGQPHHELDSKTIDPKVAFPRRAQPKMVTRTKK

Binder	binding result (MSI2-RRM1 [1])	binding result (MSI2-RRM1 [2])
GUAGUAGU (ssRNA) [Numb8]	binds	–
UAGGUAGUAGUUUUA (ssRNA) [Numb15]	–	binds
GUAGU (ssRNA) [Numb5]	binds	–
